Drawing on patent publication US20190031751A1 (University of Texas, published 2019), this text covers EC50 for 5 molecules.

The target of this assay is T1, Human epidermal growth factor (EGF)-like domain multiple 6 (EGFL6) protein (human, UniProt Q8IUX8 22-553).
T1 construct: Secreted protein; also called human EGFL6; recombinant human EGFL6
T1 sequence (looked up): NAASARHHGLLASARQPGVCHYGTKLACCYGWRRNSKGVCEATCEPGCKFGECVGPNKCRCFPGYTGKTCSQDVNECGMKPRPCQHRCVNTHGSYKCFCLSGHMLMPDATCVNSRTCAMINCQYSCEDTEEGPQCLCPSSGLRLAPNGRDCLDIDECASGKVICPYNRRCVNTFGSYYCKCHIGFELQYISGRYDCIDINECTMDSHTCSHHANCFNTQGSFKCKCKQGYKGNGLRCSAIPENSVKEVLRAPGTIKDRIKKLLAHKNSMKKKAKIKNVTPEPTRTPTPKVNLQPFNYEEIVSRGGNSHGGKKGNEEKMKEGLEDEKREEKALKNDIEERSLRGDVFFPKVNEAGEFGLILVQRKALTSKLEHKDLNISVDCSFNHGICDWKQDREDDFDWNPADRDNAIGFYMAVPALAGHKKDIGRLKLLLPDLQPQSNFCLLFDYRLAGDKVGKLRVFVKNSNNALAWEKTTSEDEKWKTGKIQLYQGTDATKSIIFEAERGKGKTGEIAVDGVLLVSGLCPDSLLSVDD
The assay is described as follows: ELISA titration on coated EGFL6, 4-parameter curve fit. The method, then:
Binding of EGFL6 by monoclonal antibodies was first screened by ELISA using supernatants collected from the B cell cultures (FIG. 2). ELISA titration was used to determine the binding affinity of a panel of monoclonal antibodies to EGFL6 antigen (FIG. 3). Binding constants (KD and/or EC 50) of a panel of monoclonal antibodies were estimated using the 4 parameter curve fitting with Prism GraphPad program. For Biacore analysis, all experiments were performed at 25° C. at a flow rate of 45 μl/min. An anti-human IgG Fc antibody (from ThermoFisher, at 50 μg/ml each in acetate buffer, pH 5.0) was immobilized onto a carboxymethyl dextran sensorchip (CMS) using amine coupling procedures based on instruction from the manufacturer. Purified rabbit/human chimeric antibody to be tested was diluted at a concentration of 5 μg/ml in 0.5% P20, HBS-EP buffer and injected on FC2 to reach 500 to 1000 RU. FC1 was used as the reference cell. Specific signals correspond to the difference of signals obtained on FC2 versus FC1. The analyte (recombinant human EGFL6, apparent molecular weight 60 kDa on SDS-PAGE gel) was injected during 90 sec at series of concentration dilutions (100, 50, 25, 12.5, 6.25, and 3.13, 1.56 nM) in 0.5% P20, HBS-EP buffer. These concentrations were prepared from stock solution in 0.5% P20, HBS-EP. The dissociation phase of the analyte was monitored over a 30 minutes period. Running buffer was also injected under the same conditions as a double reference. After each running cycle, both flow cells were regenerated by injecting 20 to 45 μl of Glycine-HCl buffer pH 1.5. Binding KD on EGFL6 was calculated by koff/kₒₙ kinetic rate for each EGFL6 monoclonal antibodies (Table 3).
Background: ELISA stands for enzyme-linked immunosorbent assay.

B1: E2-135 monoclonal antibody (antibody, V domains shown)
VH: QSVKESEGDLVKPGASLTLTCKASGFDFSSSYFMCWVRQAPGRGLEWIACIYTVISRKTYYASWAKGRFTISKTSATTVDLQMTSLTAADTATYFCARSATIERLDLWGQGTLVTVSS
VL: ELDLTQTPSPVSAPVGGTVTINCQASESVYNNYRLSWYQQKPGQPPKLLIYAASTLASGVPSRFKGSGSGTQFTLAISDVVCDDAATYYCVGYKSGYIDSIPFGGGTEVVVK
notes: Rabbit variable domains; also called mAb135
For orientation: EC50 means the midpoint of the concentration-response curve. In the case of B1, the EC50 came out at 0.44 ng/mL.

B2: E1-34 monoclonal antibody (antibody, V domains shown)
VH: EQSVKESGGGLVQPEGSLTLTCTASGFSFSSIYWICWVRQAPGKGLELIACIQITSGITYYASWAKGRFTISKMSSTTVTLQMTSLTVADTATYFCGRRGYGAYAGTGASDLWGPGTLVTVSS
VL: ELDLTQTASSVSAAVGGTVTINCQSSQSVYNNNNLAWYQQKPGQPPKLLIYEASKLASGVPSRFKGSGSGTQFTLTISGVQCDDAATYYCAGGYAGYIWAFGGGTEVVVK
notes: Rabbit variable domains
On to B2, for which a half-maximal effect (EC50) was put at 0.78 ng/mL.

B3: E2-93 monoclonal antibody (antibody, V domains shown)
VH: QSVKESEGGLVQPEGSLTLTCKASGFSFSSYGVNWVRQAPGKGLEWIAYIGLSSEITYYAGWAKGRFTISKPSSTTVTLQMTSLTAADTATYFCVRDLYHSNGLWGPGTLVTISS
VL: ELDLTQTPSPVSAAVGGTVTVSCQASESVYNNNRLSWYQQKPGQPPKLLIYYASTLASGVPSRFSGSGSGTQFTLTISSVQCADAATYYCVAFKGYGTDGNAFGGGTEVEIK
notes: Rabbit variable domains; also called Mab #93; mAb93
B3 had an EC50 of 0.37 ng/mL.

B4: E1-38 monoclonal antibody (antibody, V domains shown)
VH: EQSVKESGGDLVKPEGSLTLTCTASGFSFNSGYWVCWVRQAPGKGLEWIACIYTSSPTGAIYYATWAKGRFTISQTSSTTVTLQMTSLTAADTATYFCTRDNFGGGGSASKLWGPGTLVTISS
VL: ELVMTQTPSSKSVPVGGTVTIDCQASESVYSNNRCAWYQQKPGQPPKLLIYYASTLASGVPSRFKCSGSGTRFTLTISGVQCEDAATYYCAGYKTADSDGLGFGGGTEVEIK
notes: Rabbit variable domains
The molecule B4 came in with an EC50 of 5.81 ng/mL.

B5: E1-142 monoclonal antibody (antibody, V domains shown)
VH: QSLEESGGDLVKPGASLTLTCTASGFTINNYNINWVRQAPGKGLEWIARIWNGDGSTYYASWAKGRFTISKTSSTTVTLQMTSLTAADTATYFCARNFNLWGPGTLVTISS
VL: ELVLTQTPSPVSAAVGGTVTINCQSSASVYSNNYLSWFQQKPGQPPKPLIYYASTLASGVPSRFKGSGSGTQFTLTISDVQCDDAATYYCAGDYSSSSDMCIFGGGTELEIK
notes: Rabbit variable domains
B5 displayed an EC50 of 1.91 ng/mL.
